According to patent US20260242823:
Like-named read-outs stand apart in the source and are kept apart here.

B1: plasmin (protein)
chain: KVYLSECKTGNGKNYRGTMSKTKNGITCQKWSSTSPHRPRFSPATHPSEGLEENYCRNPDNDPQGPWCYTTDPEKRYDYCDILECEEECMHCSGENYDGKISKTMSGLECQAWDSQSPHAHGYIPSKFPNKNLKKNYCRNPDRELRPWCFTTDPNKRWELCDIPRCTTPPPSSGPTYQCLKGTGENYRGNVAVTVSGHTCQHWSAQTPHTHNRTPENFPCKNLDENYCRNPDGKRAPWCHTTNSQVRWEYCKIPSCDSSPVSTEQLAPTAPPELTPVVQDCYHGDGQSYRGTSSTTTTGKKCQSWSSMTPHRHQKTPENYPNAGLTMNYCRNPDADKGPWCFTTDPSVRWEYCNLKKCSGTEASVVAPPPVVLLPDVETPSEEDCMFGNGKGYRGKRATTVTGTPCQDWAAQEPHRHSIFTPETNPRAGLEKNYCRNPDGDVGGPWCYTTNPRKLYDYCDVPQCAAPSFDCGKPQVEPKKCPGRVVGGCVAHPHSWPWQVSLRTRFGMHFCGGTLISPEWVLTAAHCLEKSPRPSSYKVILGAHQEVNLEPHVQEIEVSRLFLEPTRKDIALLKLSSPAVITDKVIPACLPSPNYVVADRTECFITGWGETQGTFGAGLLKEAQLPVIENKVCNRYEFLNGRVQSTELCAGHLAGGTDSCQGDSGGPLVCFEKDKYILQGVTSWGLGCARPNKPGVYVRVSRFVTWIEGVMRNN

Assays:
[1] = system: FVIII-R336Q/R562Q
[2] = system: wild-type FVIII
[3] = biological target: FVIII-R336Q/R562Q; remark: listed apart in the source
[4] = biological target: wild-type FVIII; remark: listed apart in the source

Chain of wild-type FVIII (chain, as listed by the source): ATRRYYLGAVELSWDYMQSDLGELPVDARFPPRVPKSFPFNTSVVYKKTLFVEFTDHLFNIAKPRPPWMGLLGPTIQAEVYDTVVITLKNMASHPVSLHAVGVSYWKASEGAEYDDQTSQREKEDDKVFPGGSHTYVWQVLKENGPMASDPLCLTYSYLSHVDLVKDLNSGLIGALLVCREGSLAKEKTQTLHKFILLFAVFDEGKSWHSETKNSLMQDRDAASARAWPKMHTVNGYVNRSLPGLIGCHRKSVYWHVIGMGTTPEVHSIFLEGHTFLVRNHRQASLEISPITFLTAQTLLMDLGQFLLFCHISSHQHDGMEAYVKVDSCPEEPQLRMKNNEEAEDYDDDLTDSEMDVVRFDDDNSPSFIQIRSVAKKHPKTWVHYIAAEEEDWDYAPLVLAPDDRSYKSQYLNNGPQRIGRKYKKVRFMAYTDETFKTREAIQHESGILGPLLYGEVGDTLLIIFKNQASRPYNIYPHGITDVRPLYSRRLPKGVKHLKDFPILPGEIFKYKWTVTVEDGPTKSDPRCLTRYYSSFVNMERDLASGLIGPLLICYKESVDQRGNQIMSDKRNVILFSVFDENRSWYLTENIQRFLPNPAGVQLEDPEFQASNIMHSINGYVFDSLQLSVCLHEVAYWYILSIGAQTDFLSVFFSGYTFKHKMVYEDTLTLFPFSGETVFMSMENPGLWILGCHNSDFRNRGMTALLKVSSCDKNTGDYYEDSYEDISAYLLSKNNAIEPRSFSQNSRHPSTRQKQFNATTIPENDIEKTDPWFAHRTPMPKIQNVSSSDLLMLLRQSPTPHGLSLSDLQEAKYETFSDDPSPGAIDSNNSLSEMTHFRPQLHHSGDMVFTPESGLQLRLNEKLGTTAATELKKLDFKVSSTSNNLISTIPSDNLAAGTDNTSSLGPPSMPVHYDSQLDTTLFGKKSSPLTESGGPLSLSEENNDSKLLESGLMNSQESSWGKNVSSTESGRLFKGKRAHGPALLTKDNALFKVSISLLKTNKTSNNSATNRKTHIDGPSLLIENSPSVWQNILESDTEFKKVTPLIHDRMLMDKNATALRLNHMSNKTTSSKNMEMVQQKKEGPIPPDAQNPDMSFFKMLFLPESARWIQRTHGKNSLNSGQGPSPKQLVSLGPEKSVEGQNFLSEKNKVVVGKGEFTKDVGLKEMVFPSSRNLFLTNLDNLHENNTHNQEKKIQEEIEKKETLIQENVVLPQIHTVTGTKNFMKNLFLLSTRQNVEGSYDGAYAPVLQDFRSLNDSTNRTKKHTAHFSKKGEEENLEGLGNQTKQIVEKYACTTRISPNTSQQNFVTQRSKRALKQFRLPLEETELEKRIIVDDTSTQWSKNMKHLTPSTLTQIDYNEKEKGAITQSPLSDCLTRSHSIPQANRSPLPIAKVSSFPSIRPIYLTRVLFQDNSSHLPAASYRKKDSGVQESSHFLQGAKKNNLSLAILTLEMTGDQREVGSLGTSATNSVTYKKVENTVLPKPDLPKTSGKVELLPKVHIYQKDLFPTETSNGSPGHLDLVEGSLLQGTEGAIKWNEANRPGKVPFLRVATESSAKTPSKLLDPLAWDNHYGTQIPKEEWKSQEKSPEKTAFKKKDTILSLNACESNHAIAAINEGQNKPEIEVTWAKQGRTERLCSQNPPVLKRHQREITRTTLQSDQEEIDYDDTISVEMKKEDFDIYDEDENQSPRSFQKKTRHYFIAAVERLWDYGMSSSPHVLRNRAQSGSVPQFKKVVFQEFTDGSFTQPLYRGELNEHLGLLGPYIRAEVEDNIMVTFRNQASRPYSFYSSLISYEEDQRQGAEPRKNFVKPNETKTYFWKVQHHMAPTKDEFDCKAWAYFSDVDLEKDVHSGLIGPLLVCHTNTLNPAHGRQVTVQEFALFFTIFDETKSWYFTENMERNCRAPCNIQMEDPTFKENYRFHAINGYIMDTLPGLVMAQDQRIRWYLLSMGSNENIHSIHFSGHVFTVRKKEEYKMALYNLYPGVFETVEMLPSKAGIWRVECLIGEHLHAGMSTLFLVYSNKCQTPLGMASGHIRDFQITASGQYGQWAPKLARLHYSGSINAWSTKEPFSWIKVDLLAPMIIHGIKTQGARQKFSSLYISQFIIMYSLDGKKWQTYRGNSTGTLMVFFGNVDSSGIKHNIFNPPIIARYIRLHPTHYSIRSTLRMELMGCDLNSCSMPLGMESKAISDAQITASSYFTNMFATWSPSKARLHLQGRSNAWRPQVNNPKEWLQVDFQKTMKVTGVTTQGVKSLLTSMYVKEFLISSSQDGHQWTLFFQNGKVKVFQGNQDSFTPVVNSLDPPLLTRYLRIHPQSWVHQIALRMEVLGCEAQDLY
Chain of FVIII-R336Q/R562Q (chain, as listed by the source R336Q R562Q): as the sequence (chain, as listed by the source) above, with R336Q, R562Q counted along it

Molecule | Western Blot analysis of cleavage fragments [1] | Western Blot analysis of cleavage fragments [2] | Western blot cleavage at R372 [2] | Western Blot analysis of cleavage fragments [3] | Western Blot analysis of cleavage fragments [4]
FXa | no such cleavage fragments were seen with FVIII-QQ | all serine proteases cleaved at R336 or R562 in FVIII-WT |  |  | 
activated protein C | no such cleavage fragments were seen with FVIII-QQ | all serine proteases cleaved at R336 or R562 in FVIII-WT |  |  | 
thrombin (IIa) | no such cleavage fragments were seen with FVIII-QQ | all serine proteases cleaved at R336 or R562 in FVIII-WT | thrombin (IIa) as well as multiple serine proteases can also cleave R372 of FVIII |  | 
FIXa | no such cleavage fragments were seen with FVIII-QQ | all serine proteases cleaved at R336 or R562 in FVIII-WT |  |  | 
B1 |  |  |  | no such cleavage fragments were seen with FVIII-QQ | all serine proteases cleaved at R336 or R562 in FVIII-WT
